Measured values as given in patent US20100129369A1.

Tests used:
human c-Met (human) = human c-Met (human) (UniProt P08581); assay: cell-based or functional assay
[1] = target: human c-Met ECD-Fc-Flis (human); assay: HGF-blocking ELISA: HGF signal on coated c-Met ECD-Fc-Flis; Ab 7.63 ng/mL
[2] = target: human c-Met ECD-Fc-Flis (human); assay: HGF-blocking ELISA: HGF signal on coated c-Met ECD-Fc-Flis; Ab 30.52 ng/mL
[3] = target: human c-Met ECD-Fc-Flis (human); assay: HGF-blocking ELISA: HGF signal on coated c-Met ECD-Fc-Flis; Ab 1953.13 ng/mL
[4] = target: human c-Met ECD-Fc-Flis (human); assay: HGF-blocking ELISA: HGF signal on coated c-Met ECD-Fc-Flis; Ab 7812.50 ng/mL
[5] = target: human c-Met ECD-Fc-Flis (human); assay: HGF-blocking ELISA: HGF signal on coated c-Met ECD-Fc-Flis; Ab 488.28 ng/mL
[6] = target: human c-Met ECD-Fc-Flis (human); assay: HGF-blocking ELISA: HGF signal on coated c-Met ECD-Fc-Flis; Ab 0.48 ng/mL
[7] = target: human c-Met ECD-Fc-Flis (human); assay: HGF-blocking ELISA: HGF signal on coated c-Met ECD-Fc-Flis; Ab 125000.00 ng/mL
[8] = target: human c-Met ECD-Fc-Flis (human); assay: HGF-blocking ELISA: HGF signal on coated c-Met ECD-Fc-Flis; Ab 0.00 ng/mL (HGF only)
[9] = target: human c-Met ECD-Fc-Flis (human); assay: HGF-blocking ELISA: HGF signal on coated c-Met ECD-Fc-Flis; Ab 1.91 ng/mL
[10] = target: human c-Met ECD-Fc-Flis (human); assay: HGF-blocking ELISA: HGF signal on coated c-Met ECD-Fc-Flis; Ab 31250.00 ng/mL
[11] = target: human c-Met ECD-Fc-Flis (human); assay: HGF-blocking ELISA: HGF signal on coated c-Met ECD-Fc-Flis; Ab 122.07 ng/mL

human c-Met (human), sequence (P08581 25-1390): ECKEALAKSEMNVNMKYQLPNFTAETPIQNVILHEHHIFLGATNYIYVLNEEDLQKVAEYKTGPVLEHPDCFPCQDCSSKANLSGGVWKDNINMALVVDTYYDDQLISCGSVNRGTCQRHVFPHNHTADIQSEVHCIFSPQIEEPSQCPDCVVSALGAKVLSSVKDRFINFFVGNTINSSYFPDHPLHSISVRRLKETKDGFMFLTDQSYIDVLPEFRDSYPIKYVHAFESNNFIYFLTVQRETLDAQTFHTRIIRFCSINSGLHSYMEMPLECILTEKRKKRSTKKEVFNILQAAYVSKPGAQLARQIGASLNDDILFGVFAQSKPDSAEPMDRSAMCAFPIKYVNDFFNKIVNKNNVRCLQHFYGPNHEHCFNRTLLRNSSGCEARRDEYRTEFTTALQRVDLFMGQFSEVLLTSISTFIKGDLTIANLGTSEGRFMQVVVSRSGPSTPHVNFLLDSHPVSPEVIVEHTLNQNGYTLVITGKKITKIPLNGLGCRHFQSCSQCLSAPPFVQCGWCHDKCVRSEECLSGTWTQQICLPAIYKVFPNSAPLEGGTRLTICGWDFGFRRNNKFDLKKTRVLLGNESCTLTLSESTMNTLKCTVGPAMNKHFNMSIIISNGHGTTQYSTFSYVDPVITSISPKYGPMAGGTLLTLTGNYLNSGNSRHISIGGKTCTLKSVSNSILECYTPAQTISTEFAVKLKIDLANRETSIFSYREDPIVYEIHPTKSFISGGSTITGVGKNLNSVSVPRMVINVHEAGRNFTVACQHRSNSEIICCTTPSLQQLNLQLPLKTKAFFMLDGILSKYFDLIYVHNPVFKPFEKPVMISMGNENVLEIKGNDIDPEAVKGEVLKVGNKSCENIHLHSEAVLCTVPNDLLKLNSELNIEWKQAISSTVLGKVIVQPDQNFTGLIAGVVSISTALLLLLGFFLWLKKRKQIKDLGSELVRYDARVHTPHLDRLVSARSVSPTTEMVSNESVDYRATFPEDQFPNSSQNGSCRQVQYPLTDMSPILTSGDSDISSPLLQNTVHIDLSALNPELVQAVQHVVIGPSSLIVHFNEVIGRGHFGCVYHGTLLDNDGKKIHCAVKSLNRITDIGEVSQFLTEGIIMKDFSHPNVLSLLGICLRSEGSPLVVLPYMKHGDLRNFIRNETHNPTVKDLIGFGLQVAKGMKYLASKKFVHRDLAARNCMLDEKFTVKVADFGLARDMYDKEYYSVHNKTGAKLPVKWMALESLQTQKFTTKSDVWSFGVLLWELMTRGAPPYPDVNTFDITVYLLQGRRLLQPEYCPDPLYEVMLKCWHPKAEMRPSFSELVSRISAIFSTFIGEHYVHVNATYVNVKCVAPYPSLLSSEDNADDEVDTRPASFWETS
human c-Met ECD-Fc-Flis (human), sequence (chain, as listed by the source): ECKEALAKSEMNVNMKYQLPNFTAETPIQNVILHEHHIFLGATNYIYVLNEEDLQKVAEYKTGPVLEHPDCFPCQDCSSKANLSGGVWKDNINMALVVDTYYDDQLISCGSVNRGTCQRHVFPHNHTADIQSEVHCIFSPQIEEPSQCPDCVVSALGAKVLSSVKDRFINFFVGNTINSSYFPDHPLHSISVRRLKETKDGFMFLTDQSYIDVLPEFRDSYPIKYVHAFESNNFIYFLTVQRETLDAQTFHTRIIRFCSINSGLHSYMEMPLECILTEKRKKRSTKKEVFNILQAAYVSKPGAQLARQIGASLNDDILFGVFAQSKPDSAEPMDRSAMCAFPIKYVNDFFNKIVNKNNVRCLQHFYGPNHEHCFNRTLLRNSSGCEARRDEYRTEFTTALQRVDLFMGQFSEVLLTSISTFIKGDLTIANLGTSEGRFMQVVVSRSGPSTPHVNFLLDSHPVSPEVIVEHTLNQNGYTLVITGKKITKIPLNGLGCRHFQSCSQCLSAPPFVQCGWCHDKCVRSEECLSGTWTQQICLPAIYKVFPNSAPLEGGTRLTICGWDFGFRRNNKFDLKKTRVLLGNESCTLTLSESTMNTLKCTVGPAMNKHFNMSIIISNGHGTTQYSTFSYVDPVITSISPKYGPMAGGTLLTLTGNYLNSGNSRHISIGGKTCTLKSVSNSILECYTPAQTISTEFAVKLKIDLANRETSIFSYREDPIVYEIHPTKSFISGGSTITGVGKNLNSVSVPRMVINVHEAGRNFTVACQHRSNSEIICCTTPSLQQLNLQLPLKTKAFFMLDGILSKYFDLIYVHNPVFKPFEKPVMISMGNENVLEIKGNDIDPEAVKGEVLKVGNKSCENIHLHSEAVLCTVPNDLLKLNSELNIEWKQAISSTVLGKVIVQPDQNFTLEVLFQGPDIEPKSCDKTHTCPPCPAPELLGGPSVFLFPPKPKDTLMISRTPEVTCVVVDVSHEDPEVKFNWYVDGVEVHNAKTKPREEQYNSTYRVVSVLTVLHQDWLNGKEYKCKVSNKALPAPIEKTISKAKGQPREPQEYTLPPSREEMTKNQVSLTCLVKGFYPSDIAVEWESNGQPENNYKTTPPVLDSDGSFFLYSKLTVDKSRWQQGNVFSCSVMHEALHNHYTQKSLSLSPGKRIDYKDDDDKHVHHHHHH
human hepatocyte growth factor (HGF), sequence (P14210 32-728 limits assumed): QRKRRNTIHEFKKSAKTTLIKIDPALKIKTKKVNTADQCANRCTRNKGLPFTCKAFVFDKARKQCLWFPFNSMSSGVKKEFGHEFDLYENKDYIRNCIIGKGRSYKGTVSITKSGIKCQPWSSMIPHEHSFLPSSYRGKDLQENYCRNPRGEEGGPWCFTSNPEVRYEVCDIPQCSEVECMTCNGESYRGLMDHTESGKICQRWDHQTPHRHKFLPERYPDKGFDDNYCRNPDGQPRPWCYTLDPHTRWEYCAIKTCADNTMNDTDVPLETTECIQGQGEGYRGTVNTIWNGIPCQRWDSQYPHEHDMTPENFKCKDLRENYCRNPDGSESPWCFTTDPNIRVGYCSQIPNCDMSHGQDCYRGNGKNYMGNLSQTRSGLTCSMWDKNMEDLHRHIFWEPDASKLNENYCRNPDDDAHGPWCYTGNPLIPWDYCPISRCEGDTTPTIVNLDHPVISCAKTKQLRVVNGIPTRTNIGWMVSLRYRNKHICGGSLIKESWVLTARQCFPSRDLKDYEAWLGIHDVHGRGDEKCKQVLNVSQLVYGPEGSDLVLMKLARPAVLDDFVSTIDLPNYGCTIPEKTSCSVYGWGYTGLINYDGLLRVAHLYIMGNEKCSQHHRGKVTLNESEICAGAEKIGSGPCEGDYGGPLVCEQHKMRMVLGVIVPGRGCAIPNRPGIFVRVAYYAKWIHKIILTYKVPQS

Row | Substance | % inhibition of HGF stimulated phospho-Met (ELISA, HCT116 cells), Ab 0.0032 µg/mL (human c-Met (human)) [%] | % inhibition of HGF stimulated phospho-Met (ELISA, HCT116 cells), Ab 0.016 µg/mL (human c-Met (human)) [%] | % inhibition of HGF stimulated phospho-Met (ELISA, HCT116 cells), Ab 0.08 µg/mL (human c-Met (human)) [%] | % inhibition of HGF stimulated phospho-Met (ELISA, HCT116 cells), Ab 0.4 µg/mL (human c-Met (human)) [%] | % inhibition of HGF stimulated phospho-Met (ELISA, HCT116 cells), Ab 2 µg/mL (human c-Met (human)) [%] | % inhibition of HGF stimulated phospho-Met (ELISA, HCT116 cells), Ab 10 µg/mL (human c-Met (human)) [%] | AVG CPM, 3H-thymidine incorporation in MKN45 cells, Ab 0.0 ng/mL (no antibody) (human c-Met (human)) [CPM] | AVG CPM, 3H-thymidine incorporation in MKN45 cells, Ab 0.1 ng/mL (human c-Met (human)) [CPM] | AVG CPM, 3H-thymidine incorporation in MKN45 cells, Ab 0.4 ng/mL (human c-Met (human)) [CPM] | AVG CPM, 3H-thymidine incorporation in MKN45 cells, Ab 2.6 ng/mL (human c-Met (human)) [CPM] | AVG CPM, 3H-thymidine incorporation in MKN45 cells, Ab 15.4 ng/mL (human c-Met (human)) [CPM] | AVG CPM, 3H-thymidine incorporation in MKN45 cells, Ab 92.6 ng/mL (human c-Met (human)) [CPM] | AVG CPM, 3H-thymidine incorporation in MKN45 cells, Ab 555.6 ng/mL (human c-Met (human)) [CPM] | AVG CPM, 3H-thymidine incorporation in MKN45 cells, Ab 3333.3 ng/mL (human c-Met (human)) [CPM] | AVG CPM, 3H-thymidine incorporation in MKN45 cells, Ab 20000.0 ng/mL (human c-Met (human)) [CPM] | Mean Fluorescence (c-Met left on the surface of MKN45 cells, FACS), Ab 5.00 ug/mL (human c-Met (human)) | AVG A450 nm [1] [A450 nm] | AVG A450 nm [2] [A450 nm] | AVG A450 nm [3] [A450 nm] | AVG A450 nm [4] [A450 nm] | further results
1 | Murine IgG1 c-Met antibody 5D5 | -6.07 | -3.5 | 11.9 | 42.5 | 63.8 | 64.1 | 50300 | 51900 | 49600 | 55000 | 49800 | 39600 | 39500 | 38200 | 35100 | 92.9 | – | – | – | – | 3H-Thymidine Incorporation in Caki-1 Cells in the Absence of HGF (AVG CPM), antibody dose 0.1 ng/mL (human c-Met (human)): 14400 CPM; 3H-Thymidine Incorporation in Caki-1 Cells in the Absence of HGF (AVG CPM), antibody dose 0.4 ng/mL (human c-Met (human)): 12900 CPM; 3H-Thymidine Incorporation in Caki-1 Cells in the Absence of HGF (AVG CPM), antibody dose 2.6 ng/mL (human c-Met (human)): 12500 CPM; 3H-Thymidine Incorporation in Caki-1 Cells in the Absence of HGF (AVG CPM), antibody dose 15.4 ng/mL (human c-Met (human)): 11700 CPM; 3H-Thymidine Incorporation in Caki-1 Cells in the Absence of HGF (AVG CPM), antibody dose 92.6 ng/mL (human c-Met (human)): 15600 CPM; 3H-Thymidine Incorporation in Caki-1 Cells in the Absence of HGF (AVG CPM), antibody dose 555.6 ng/mL (human c-Met (human)): 20000 CPM; 3H-Thymidine Incorporation in Caki-1 Cells in the Absence of HGF (AVG CPM), antibody dose 3333.3 ng/mL (human c-Met (human)): 19000 CPM; 3H-Thymidine Incorporation in Caki-1 Cells in the Absence of HGF (AVG CPM), antibody dose 20000.0 ng/mL (human c-Met (human)): 19900 CPM; 3H-Thymidine Incorporation in Primary Human Hepatocytes in the Absence of HGF (average), dose 0.0032 ug/mL (human c-Met (human)): 822; 3H-Thymidine Incorporation in Primary Human Hepatocytes in the Absence of HGF (average), dose 0.016 ug/mL (human c-Met (human)): 1720; 3H-Thymidine Incorporation in Primary Human Hepatocytes in the Absence of HGF (average), dose 0.08 ug/mL (human c-Met (human)): 3320; 3H-Thymidine Incorporation in Primary Human Hepatocytes in the Absence of HGF (average), dose 0.4 ug/mL (human c-Met (human)): 3760; 3H-Thymidine Incorporation in Primary Human Hepatocytes in the Absence of HGF (average), dose 2 ug/mL (human c-Met (human)): 4910; 3H-Thymidine Incorporation in Primary Human Hepatocytes in the Absence of HGF (average), dose 10 ug/mL (human c-Met (human)): 4980; H441 Scratch Assay, Avg. %, antibody 10 ug/mL (human c-Met (human)): 244%; HepG2 Cell Invasiveness, Average Cell Number Per 2.5x Field, antibody 10.00 ug/mL (cells per 2.5x field) (human c-Met (human)): 85; Percent of DU145 Cells in Colonies (scatter assay), antibody 20 ug/mL (human c-Met (human)): 14.4%; Tube Formation in ECFC Cells, Total Tube Area (Avg.), antibody 10 ug/mL (human c-Met (human)): 147000; Tubular Morphogenesis Agonist activity (fold stimulation) in HepG2 cells, antibody 50 ug/ml (fold stimulation) (human c-Met (human)): 4.9; p-Met signal (pY1349 ELISA, A549 cells), Ab Conc. 5 (ng/mL as printed) (human c-Met (human)): 3.29
2 | human hepatocyte growth factor (HGF) (from UniProt P14210 32-728) (ligand) | – | – | – | – | – | – | – | – | – | – | – | – | – | – | – | – | – | – | – | – | 3H-Thymidine Incorporation in Primary Human Hepatocytes (ave), HGF 200 ng/mL (human c-Met (human)): 6290; H441 Scratch Assay, Avg. %, HGF 200 ng/mL (human c-Met (human)): 364%; HepG2 Cell Invasiveness, Average Cell Number Per 2.5x Field, HGF 50 ng/mL (cells per 2.5x field) (human c-Met (human)): 510; Percent of DU145 Cells in Colonies (scatter assay), HGF 20 ng/mL (human c-Met (human)): 8.15%; Staurosporine-Induced Apoptosis in Caki-1 Cells, Average A450 nm, HGF 0.02 ng/mL (human c-Met (human)): 0.97 A450 nm; Staurosporine-Induced Apoptosis in Caki-1 Cells, Average A450 nm, HGF 0.23 ng/mL (human c-Met (human)): 0.93 A450 nm; Staurosporine-Induced Apoptosis in Caki-1 Cells, Average A450 nm, HGF 2.25 ng/mL (human c-Met (human)): 0.73 A450 nm; Staurosporine-Induced Apoptosis in Caki-1 Cells, Average A450 nm, HGF 22.5 ng/mL (human c-Met (human)): 0.58 A450 nm; Staurosporine-Induced Apoptosis in Caki-1 Cells, Average A450 nm, HGF 225 ng/mL (human c-Met (human)): 0.45 A450 nm; Tube Formation in ECFC Cells, Total Tube Area (Avg.), HGF 100 ng/mL (human c-Met (human)): 212000; Tubular Morphogenesis Agonist activity (fold stimulation) in HepG2 cells, HGF 50 ng/ml (fold stimulation) (human c-Met (human)): 5.4
3 | humanized IgG2 isotype control antibody | -10.2 | 9.49 | -1.58 | 9.31 | 17.5 | 6.24 | 50400 | 44800 | 46500 | 48500 | 50500 | 47600 | 51700 | 49400 | 45100 | 130 | 2.7 | 2.41 | 2.43 | 2.5 | AVG A450 nm [5]: 2.53 A450 nm; AVG A450 nm [6]: 2.46 A450 nm; AVG A450 nm [7]: 2.43 A450 nm; AVG A450 nm [8]: 2.43 A450 nm; AVG A450 nm [9]: 2.87 A450 nm; AVG A450 nm [10]: 2.5 A450 nm; AVG A450 nm [11]: 2.52 A450 nm
4 | humanized IgG4 isotype control antibody | -14.4 | -7.96 | -21.7 | -16.1 | -6.62 | -1.47 | 48700 | 53900 | 55300 | 54800 | 53800 | 54300 | 54200 | 54000 | 50600 | 135 | 2.88 | 2.63 | 2.27 | 2.49 | p-Met signal (pY1349 ELISA, A549 cells), Ab 0.002 µg/mL (human c-Met (human)): 0.117; p-Met signal (pY1349 ELISA, A549 cells), Ab 0.005 µg/mL (human c-Met (human)): 0.074; p-Met signal (pY1349 ELISA, A549 cells), Ab 0.014 µg/mL (human c-Met (human)): 0.074; p-Met signal (pY1349 ELISA, A549 cells), Ab 0.041 µg/mL (human c-Met (human)): 0.268; p-Met signal (pY1349 ELISA, A549 cells), Ab 0.123 µg/mL (human c-Met (human)): 0.067; p-Met signal (pY1349 ELISA, A549 cells), Ab 0.370 µg/mL (human c-Met (human)): 0.082; p-Met signal (pY1349 ELISA, A549 cells), Ab 1.113 µg/mL (human c-Met (human)): 0.087; p-Met signal (pY1349 ELISA, A549 cells), Ab 3.333 µg/mL (human c-Met (human)): 0.068; p-Met signal (pY1349 ELISA, A549 cells), Ab 10 µg/mL (human c-Met (human)): 0.077; p-Met signal (pY1349 ELISA, A549 cells), Ab 30 µg/mL (human c-Met (human)): 0.061; AVG A450 nm [5]: 2.44 A450 nm; AVG A450 nm [6]: 2.41 A450 nm; AVG A450 nm [7]: 3 A450 nm; AVG A450 nm [8]: 2.61 A450 nm; AVG A450 nm [9]: 2.49 A450 nm; AVG A450 nm [10]: 2.67 A450 nm; AVG A450 nm [11]: 2.44 A450 nm
5 | murine IgG isotype control antibody | -9.76 | -5.42 | -10.6 | 13.4 | 9.76 | 5.46 | 50300 | 47700 | 51500 | 55500 | 51300 | 52200 | 54700 | 53700 | 52400 | 136 | – | – | – | – | –
